{"source": "paper PMC7212649", "about": "“An arrestin-1 surface opposite of its interface with photoactivated rhodopsin engages with enolase-1” (The Journal of Biological Chemistry, 2020)", "molecules": {"B1": {"name": "enolase-1 (bovine, unlabeled) (enzyme, UniProt Q9XSJ4 1-434, looked up)", "chain": "MSILKVHAREIFDSRGNPTVEVDLFTAKGLFRAAVPSGASTGIYEALELRDNDKTRYMGKGVSKAVEHINKTIAPALVSKKLNVVEQEKIDKLMIEMDGTENKSKFGANAILGVSLAVCKAGAVEKGVPLYRHIADLAGNAEVILPVPAFNVINGGSHAGNKLAMQEFMILPVGAENFREAMRIGAEVYHNLKNVIKEKYGKDATNVGDEGGFAPNILENKEALELLKNAIGKAGYSDKVVIGMDVAASEFYRSGKYDLDFKSPDDPSRYITPDELANLYKSFIRDYPVVSIEDPFDQDDWEAWQKFTASAGIQVVGDDLTVTNPKRIAKAVSEKSCNCLLLKVNQIGSVTESLQACKLAQSNGWGVMVSHRSGETEDTFIADLVVGLCTGQIKTVAPCRSERLAKYNQILRIEEELGSKAKFAGRSFRNPLAK", "notes": "enolase-1 (alpha-enolase), bovine; also called Eno1; source: prepared as arrestin-1 (Pichia pastoris, nickel-agarose)"}, "B2": {"name": "arrestin-1 E218C (C63A/C143A), mBBr-labeled (natural protein, bovine)", "chain": "KANKPAPNHVIFKKISRDKSVTIYLGKRDYIDHVERVEPVDGVVLVDPELVKGKRVYVSLTAAFRYGQEDIDVMGLSFRRDLYFSQVQVFPPVGASGATTRLQESLIKKLGANTYPFLLTFPDYLPCSVMLQPAPQDVGKSAGVDFEIKAFATHSTDVEEDKIPKKSSVRLLIRKVQHAPRDMGPQPRAEASWQFFMSDKPLRLAVSLSKEIYYHGCPIPVTVAVTNSTEKTVKKIKVLVEQVTNVVLYSSDYYIKTVAAEEAQEKVPPNSSLTKTLTLVPLLANNRERRGIALDGKIKHEDTNLASSTIIKEGIDKTVMGILVSYQIKVKLTVSGLLGELTSSEVATEVPFRLMHPQPEDPDTAKESFQDENFVFEEFARQNLKDAGEYKEEKTDQEAAMDE", "modifications": "monobromobimane (mBBr) on the introduced cysteine 218", "notes": "arrestin-1, bovine; also called E218C-mBBr; source: Pichia pastoris, purified (nickel-agarose)"}}, "key": {"[1]": {"target": "arrestin-1 D362K (bovine) (UniProt P08168)", "test": "co-IP; 5 μM arrestin-1 (or mutant) with 5 μM enolase-1–Alexa 546 in LAP200N, 2 h at 4 °C; captured by C10C10 anti-arrestin-1 mAb on Protein G magnetic beads for 16 h, 10 washes, eluted at pH 2.5; fluorescence of captured enolase-1 read"}, "arrestin-1 R29E (bovine)": {"target": "arrestin-1 R29E (bovine) (UniProt P08168)", "test": "co-IP; 5 μM arrestin-1 (or mutant) with 5 μM enolase-1–Alexa 546 in LAP200N, 2 h at 4 °C; captured by C10C10 anti-arrestin-1 mAb on Protein G magnetic beads for 16 h, 10 washes, eluted at pH 2.5; fluorescence of captured enolase-1 read"}, "[2]": {"target": "arrestin-1 E361K (bovine) (UniProt P08168)", "test": "co-IP; 5 μM arrestin-1 (or mutant) with 5 μM enolase-1–Alexa 546 in LAP200N, 2 h at 4 °C; captured by C10C10 anti-arrestin-1 mAb on Protein G magnetic beads for 16 h, 10 washes, eluted at pH 2.5; fluorescence of captured enolase-1 read"}, "[3]": {"target": "T1, arrestin-1 H10C (C63A/C143A), mBBr-labeled (bovine, UniProt P08168 2-404, C63A | C143A | H10C, monobromobimane (mBBr) on the introduced cysteine 10)", "T1 construct": "arrestin-1, bovine; source: Pichia pastoris, purified (nickel-agarose)", "test": "fluorescence quench protection (KI quenching of mBBr); both in solution; 0.25 μM mBBr-labeled arrestin-1, 100 mM potassium iodide, with or without 5 μM enolase-1 (20-fold molar excess); emission at 470 nm; Pf = (F(A+E+K)−F(A+K))/(F(A)−F(A+K))", "details": "both partners purified"}, "[4]": {"target": "T2, arrestin-1 V281C (C63A/C143A), mBBr-labeled (bovine, UniProt P08168 2-404, C63A | C143A | V281C, monobromobimane (mBBr) on the introduced cysteine 281)", "T2 construct": "arrestin-1, bovine; source: Pichia pastoris, purified (nickel-agarose)", "test": "fluorescence quench protection (KI quenching of mBBr); both in solution; 0.25 μM mBBr-labeled arrestin-1, 100 mM potassium iodide, with or without 5 μM enolase-1 (20-fold molar excess); emission at 470 nm; Pf = (F(A+E+K)−F(A+K))/(F(A)−F(A+K))", "details": "both partners purified"}, "[5]": {"target": "T3, arrestin-1 K28C (C63A/C143A), mBBr-labeled (bovine, UniProt P08168 2-404, C63A | C143A | K28C, monobromobimane (mBBr) on the introduced cysteine 28)", "T3 construct": "arrestin-1, bovine; source: Pichia pastoris, purified (nickel-agarose)", "test": "fluorescence quench protection (KI quenching of mBBr); both in solution; 0.25 μM mBBr-labeled arrestin-1, 100 mM potassium iodide, with or without 5 μM enolase-1 (20-fold molar excess); emission at 470 nm; Pf = (F(A+E+K)−F(A+K))/(F(A)−F(A+K))", "details": "both partners purified"}, "[6]": {"target": "T4, arrestin-1 S210C (C63A/C143A), mBBr-labeled (bovine, UniProt P08168 2-404, C63A | C143A | S210C, monobromobimane (mBBr) on the introduced cysteine 210)", "T4 construct": "arrestin-1, bovine; source: Pichia pastoris, purified (nickel-agarose)", "test": "fluorescence quench protection (KI quenching of mBBr); both in solution; 0.25 μM mBBr-labeled arrestin-1, 100 mM potassium iodide, with or without 5 μM enolase-1 (20-fold molar excess); emission at 470 nm; Pf = (F(A+E+K)−F(A+K))/(F(A)−F(A+K))", "details": "both partners purified"}, "[7]": {"target": "T5, arrestin-1 R189C (C63A/C143A), mBBr-labeled (bovine, UniProt P08168 2-404, C63A | C143A | R189C, monobromobimane (mBBr) on the introduced cysteine 189)", "T5 construct": "arrestin-1, bovine; source: Pichia pastoris, purified (nickel-agarose)", "test": "fluorescence quench protection (KI quenching of mBBr); both in solution; 0.25 μM mBBr-labeled arrestin-1, 100 mM potassium iodide, with or without 5 μM enolase-1 (20-fold molar excess); emission at 470 nm; Pf = (F(A+E+K)−F(A+K))/(F(A)−F(A+K))", "details": "both partners purified"}, "[8]": {"target": "T6, arrestin-1 K53C (C63A/C143A), mBBr-labeled (bovine, UniProt P08168 2-404, C63A | C143A | K53C, monobromobimane (mBBr) on the introduced cysteine 53)", "T6 construct": "arrestin-1, bovine; source: Pichia pastoris, purified (nickel-agarose)", "test": "fluorescence quench protection (KI quenching of mBBr); both in solution; 0.25 μM mBBr-labeled arrestin-1, 100 mM potassium iodide, with or without 5 μM enolase-1 (20-fold molar excess); emission at 470 nm; Pf = (F(A+E+K)−F(A+K))/(F(A)−F(A+K))", "details": "both partners purified"}, "[9]": {"target": "T7, arrestin-1 D362C (C63A/C143A), mBBr-labeled (bovine, UniProt P08168 2-404, C63A | C143A | D362C, monobromobimane (mBBr) on the introduced cysteine 362)", "T7 construct": "arrestin-1, bovine; source: Pichia pastoris, purified (nickel-agarose)", "test": "fluorescence quench protection (KI quenching of mBBr); both in solution; 0.25 μM mBBr-labeled arrestin-1, 100 mM potassium iodide, with or without 5 μM enolase-1 (20-fold molar excess); emission at 470 nm; Pf = (F(A+E+K)−F(A+K))/(F(A)−F(A+K))", "details": "both partners purified"}, "[10]": {"target": "T8, arrestin-1 D183C (C63A/C143A), mBBr-labeled (bovine, UniProt P08168 2-404, C63A | C143A | D183C, monobromobimane (mBBr) on the introduced cysteine 183)", "T8 construct": "arrestin-1, bovine; source: Pichia pastoris, purified (nickel-agarose)", "test": "fluorescence quench protection (KI quenching of mBBr); both in solution; 0.25 μM mBBr-labeled arrestin-1, 100 mM potassium iodide, with or without 5 μM enolase-1 (20-fold molar excess); emission at 470 nm; Pf = (F(A+E+K)−F(A+K))/(F(A)−F(A+K))", "details": "both partners purified"}, "[11]": {"target": "T9, arrestin-1 K267C (C63A/C143A), mBBr-labeled (bovine, UniProt P08168 2-404, C63A | C143A | K267C, monobromobimane (mBBr) on the introduced cysteine 267)", "T9 construct": "arrestin-1, bovine; source: Pichia pastoris, purified (nickel-agarose)", "test": "fluorescence quench protection (KI quenching of mBBr); both in solution; 0.25 μM mBBr-labeled arrestin-1, 100 mM potassium iodide, with or without 5 μM enolase-1 (20-fold molar excess); emission at 470 nm; Pf = (F(A+E+K)−F(A+K))/(F(A)−F(A+K))", "details": "both partners purified"}, "[12]": {"target": "T10, arrestin-1 E50C (C63A/C143A), mBBr-labeled (bovine, UniProt P08168 2-404, C63A | C143A | E50C, monobromobimane (mBBr) on the introduced cysteine 50)", "T10 construct": "arrestin-1, bovine; source: Pichia pastoris, purified (nickel-agarose)", "test": "fluorescence quench protection (KI quenching of mBBr); both in solution; 0.25 μM mBBr-labeled arrestin-1, 100 mM potassium iodide, with or without 5 μM enolase-1 (20-fold molar excess); emission at 470 nm; Pf = (F(A+E+K)−F(A+K))/(F(A)−F(A+K))", "details": "both partners purified"}, "[13]": {"target": "T11, arrestin-1 R37C (C63A/C143A), mBBr-labeled (bovine, UniProt P08168 2-404, C63A | C143A | R37C, monobromobimane (mBBr) on the introduced cysteine 37)", "T11 construct": "arrestin-1, bovine; source: Pichia pastoris, purified (nickel-agarose)", "test": "fluorescence quench protection (KI quenching of mBBr); both in solution; 0.25 μM mBBr-labeled arrestin-1, 100 mM potassium iodide, with or without 5 μM enolase-1 (20-fold molar excess); emission at 470 nm; Pf = (F(A+E+K)−F(A+K))/(F(A)−F(A+K))", "details": "both partners purified"}, "[14]": {"target": "T12, arrestin-1 E302C (C63A/C143A), mBBr-labeled (bovine, UniProt P08168 2-404, C63A | C143A | E302C, monobromobimane (mBBr) on the introduced cysteine 302)", "T12 construct": "arrestin-1, bovine; source: Pichia pastoris, purified (nickel-agarose)", "test": "fluorescence quench protection (KI quenching of mBBr); both in solution; 0.25 μM mBBr-labeled arrestin-1, 100 mM potassium iodide, with or without 5 μM enolase-1 (20-fold molar excess); emission at 470 nm; Pf = (F(A+E+K)−F(A+K))/(F(A)−F(A+K))", "details": "both partners purified"}, "[15]": {"target": "B2", "test": "fluorescence quench protection (KI quenching of mBBr); both in solution; 0.25 μM mBBr-labeled arrestin-1, 100 mM potassium iodide, with or without 5 μM enolase-1 (20-fold molar excess); emission at 470 nm; Pf = (F(A+E+K)−F(A+K))/(F(A)−F(A+K))", "details": "both partners purified"}, "[16]": {"target": "T1, arrestin-1 H10C (C63A/C143A), …", "test": "fluorescence quench protection (KI quenching of mBBr); titration of the enolase-1 concentration against H10C-mBBr arrestin-1 to set the conditions", "details": "both partners purified"}, "[17]": {"target": "B1", "test": "fluorescence quench protection (KI quenching of mBBr); E218C-mBBr arrestin-1 with enolase-1 in the presence of 5 μM pRho* (sonicated disc membranes, light for 1 min)", "details": "both partners purified"}}, "data": [{"molecule": "enolase-1 labeled with Alexa Fluor 546 (from UniProt Q9XSJ4 1-434) (enzyme)", "values": [{"measurement": "reduction of the pulldown against WT arrestin-1", "setting": "[1]", "result": 25, "unit": "%"}, {"measurement": "reduction of the pulldown against WT arrestin-1", "setting": "arrestin-1 R29E (bovine)", "result": 25, "unit": "%"}, {"measurement": "reduction of the pulldown against WT arrestin-1", "setting": "[2]", "result": 25, "unit": "%"}]}, {"molecule": "B1", "values": [{"measurement": "Pf (quench protection factor)", "setting": "[3]", "result": 0.792}, {"measurement": "Pf (quench protection factor)", "setting": "[4]", "result": 0.269}, {"measurement": "Pf (quench protection factor)", "setting": "[5]", "result": 0.732}, {"measurement": "Pf (quench protection factor)", "setting": "[6]", "result": 0.618}, {"measurement": "Pf (quench protection factor)", "setting": "[7]", "result": 0.467}, {"measurement": "Pf (quench protection factor)", "setting": "[8]", "result": 0.314}, {"measurement": "Pf (quench protection factor)", "setting": "[9]", "result": 1.2}, {"measurement": "Pf (quench protection factor)", "setting": "[10]", "result": 0.787}, {"measurement": "Pf (quench protection factor)", "setting": "[11]", "result": 0.484}, {"measurement": "Pf (quench protection factor)", "setting": "[12]", "result": 0.297}, {"measurement": "Pf (quench protection factor)", "setting": "[13]", "result": 0.564}, {"measurement": "Pf (quench protection factor)", "setting": "[14]", "result": 0.772}, {"measurement": "Pf (quench protection factor)", "setting": "[15]", "result": 1.08}, {"measurement": "quench protection at a 20-fold molar excess of enolase-1", "setting": "[16]", "result": 90, "unit": "%"}]}, {"molecule": "B2", "values": [{"measurement": "binding result", "setting": "[17]", "result": "binds"}]}]}
